The chains are these.
B1: Androgen receptor, residues 557 to 632; numbered along this chain, P10275 (parent)
chain: QKTCLICGDEASGCHYGALTCGSCKVFFKRAAEGKQKYLCASRNDCTIDKFRRKNCPSCRLRKCYEAGMTLGARKL

Abundance fitness data for 36 variants are collected here from the Human Domainome abundance scans (Beltran et al. 2025).

± gives the uncertainty stated by the source.

In this series the parent is B1. Description: abundance fitness (aPCA) (normalised: wild type 0, dead -1); higher = more abundant; growth selection in yeast, the domain comes from the species named. The settings on record: Homo sapiens.
In the case of QKTCLCCGDEASGCHYGALTCGSCKVFFKRAAEGKQKYLCASRNDCTIDKFRRKNCPSCRLRKCYEAGMTLGARKL [I6C], the abundance fitness is -0.327 ± 0.21. Under QKTCLICGDEASGCHYGALTCGSCKVFFKRAAEGKQKYLRASRNDCTIDKFRRKNCPSCRLRKCYEAGMTLGARKL [C40R] stands -0.798 ± 0.13. On to QKTCLICGDEASGCHYTALTCGSCKVFFKRAAEGKQKYLCASRNDCTIDKFRRKNCPSCRLRKCYEAGMTLGARKL [G17T], for which the abundance fitness is -0.411 ± 0.054. Consider QKTCLICGDEASLCHYGALTCGSCKVFFKRAAEGKQKYLCASRNDCTIDKFRRKNCPSCRLRKCYEAGMTLGARKL [G13L], for which the abundance fitness is -0.115 ± 0.064.

Consider QKTCLICGDEASRCHYGALTCGSCKVFFKRAAEGKQKYLCASRNDCTIDKFRRKNCPSCRLRKCYEAGMTLGARKL [G13R], for which the abundance fitness is -0.2 ± 0.061.

As to QKTCLICGDEASGCHYGALTCGSCKVFFKRAAEGKQKYLCASRNDWTIDKFRRKNCPSCRLRKCYEAGMTLGARKL [C46W], the abundance fitness was -0.878 ± 0.095. Under QKTCLICGDEASGCHYGALTCGSCKVFFKRAATGKQKYLCASRNDCTIDKFRRKNCPSCRLRKCYEAGMTLGARKL [E33T] stands -0.058 ± 0.051. Turning to QKTCLICGDEASGCHYGALTCGSCKVFFKRAAEGKQKYLCASRNDCTIDKFRRKNVPSCRLRKCYEAGMTLGARKL [C56V], the abundance fitness was -1.15 ± 0.31. With QKTCLICGDEASGCHYGALTCGSCKVFFKRAAEGKQKYLCASRNDCTIDKFRRKNTPSCRLRKCYEAGMTLGARKL [C56T], the abundance fitness was -0.562 ± 0.16. On to QKTCLICGDEASGCHYGALTCGSCKVFFKRAAEGKQKYLCASRNDCTIDSFRRKNCPSCRLRKCYEAGMTLGARKL [K50S], for which the abundance fitness is -0.13 ± 0.087.

Turning to QKTCLICGDEASGCHYGALTCGSCKVFFKRAAEGKQKYLCASRNDCTIDLFRRKNCPSCRLRKCYEAGMTLGARKL [K50L], the abundance fitness was -0.027 ± 0.069. As for QKTCLICGDEASGCHYGALTCGSCKVFFKRAAEGKQKYLCASRNDCTIDYFRRKNCPSCRLRKCYEAGMTLGARKL [K50Y], the abundance fitness is -0.124 ± 0.26. Under QKTCLICGDEASGCHYGALTCGSCKVFFKRAAEGKQKYLCISRNDCTIDKFRRKNCPSCRLRKCYEAGMTLGARKL [A41I] stands -0.275 ± 0.098. Under QKTCLICGDEASGCHYGALTCGSCWVFFKRAAEGKQKYLCASRNDCTIDKFRRKNCPSCRLRKCYEAGMTLGARKL [K25W] stands -0.077 ± 0.025; under QKTCLICGDEASGCHYGALPCGSCKVFFKRAAEGKQKYLCASRNDCTIDKFRRKNCPSCRLRKCYEAGMTLGARKL [T20P], -0.724 ± 0.09. As for QKTCLICGDEASGCHYGALTCGSCKVFFKRAAEGKQKYLCASRNDCTIDKFRRKNCPSCRLRSCYEAGMTLGARKL [K63S], the abundance fitness is -0.227 ± 0.07. In the case of QKTCLICGDEASGCHYGALTCGSCKVFFKRAAEGKQKYLCASRNDCTIDKFRRKNCPSCRLRKCFEAGMTLGARKL [Y65F], the abundance fitness is -0.056 ± 0.1. Regarding QKTCLICGDEASGCHYGALTCGSCKVFFKRAAEGKQKYLCASRNDCTIDKFRRKNCPSCRLRKCEEAGMTLGARKL [Y65E], the abundance fitness is -0.092 ± 0.09.

As to QKTCLICGDEASGCHYGALTCGSCKVFFKRAAEGKQKYLCASRNDCTIDKFRRKNCPSCRLRKCNEAGMTLGARKL [Y65N], the abundance fitness was -0.062 ± 0.12. For QKTCLICGDEASGCHYGALTCGSCKVFFKRAAEGKQKYLCASRNDCTIDKFRRKNCPSCRLRKCLEAGMTLGARKL [Y65L], the abundance fitness was -0.081 ± 0.073. In the case of QKTCLICGDEAGGCHYGALTCGSCKVFFKRAAEGKQKYLCASRNDCTIDKFRRKNCPSCRLRKCYEAGMTLGARKL [S12G], the abundance fitness is -0.056 ± 0.041. Under QKTCLICGDEANGCHYGALTCGSCKVFFKRAAEGKQKYLCASRNDCTIDKFRRKNCPSCRLRKCYEAGMTLGARKL [S12N] stands 0.21 ± 0.1. On to QKTCLIEGDEASGCHYGALTCGSCKVFFKRAAEGKQKYLCASRNDCTIDKFRRKNCPSCRLRKCYEAGMTLGARKL [C7E], for which the abundance fitness is -1.03 ± 0.39. The figure for QKTCLILGDEASGCHYGALTCGSCKVFFKRAAEGKQKYLCASRNDCTIDKFRRKNCPSCRLRKCYEAGMTLGARKL [C7L] is -0.886 ± 0.2; for QKTCLICGDEASGCHYGALTCGSCKVFFKRAAEGKQKYLCASRNDCTIAKFRRKNCPSCRLRKCYEAGMTLGARKL [D49A] it is -0.283 ± 0.088.

For QKTCLICGDEASGCHYGALTCGSCKVFFKRAAEGKQKYDCASRNDCTIDKFRRKNCPSCRLRKCYEAGMTLGARKL [L39D], the abundance fitness was -0.068 ± 0.047. In the case of QKTCLICGDEASGCHYGALTCGSCKVFFKRAAEGKQHYLCASRNDCTIDKFRRKNCPSCRLRKCYEAGMTLGARKL [K37H], the abundance fitness turned out to be 0.168 ± 0.12.

Regarding QKTCLICGDEASGCHYGALTCGSCKVFFKRAMEGKQKYLCASRNDCTIDKFRRKNCPSCRLRKCYEAGMTLGARKL [A32M], the abundance fitness is -0.019 ± 0.068.

In the case of QKVCLICGDEASGCHYGALTCGSCKVFFKRAAEGKQKYLCASRNDCTIDKFRRKNCPSCRLRKCYEAGMTLGARKL [T3V], the abundance fitness is -0.245 ± 0.063. Under QKICLICGDEASGCHYGALTCGSCKVFFKRAAEGKQKYLCASRNDCTIDKFRRKNCPSCRLRKCYEAGMTLGARKL [T3I] stands 0.009 ± 0.23. Under QKHCLICGDEASGCHYGALTCGSCKVFFKRAAEGKQKYLCASRNDCTIDKFRRKNCPSCRLRKCYEAGMTLGARKL [T3H] stands -0.225 ± 0.2; under QKWCLICGDEASGCHYGALTCGSCKVFFKRAAEGKQKYLCASRNDCTIDKFRRKNCPSCRLRKCYEAGMTLGARKL [T3W], -0.115 ± 0.087; under QKTCLICGDEASGCHYGALTCGSCKVFFKRAAEGKQKYLCASRNDCTIDKFRRKPCPSCRLRKCYEAGMTLGARKL [N55P], -0.099 ± 0.074. The figure for QKTCLICGDEASGCHYGALTCGSCKVFFKRAAEGKQKYLCASRNDCTIDKFRRKKCPSCRLRKCYEAGMTLGARKL [N55K] is 0.044 ± 0.077; for QKTCLICGDEASGCHYGALTCGACKVFFKRAAEGKQKYLCASRNDCTIDKFRRKNCPSCRLRKCYEAGMTLGARKL [S23A] it is -0.163 ± 0.037; for QKTCLICGDEASGCHYGALTCGSCKVFFKRAAEGKQKYLCASRNDCTIDKFRRKNCPSCRLRKCYEAGMILGARKL [T70I] it is -0.344 ± 0.29.
